Measurements taken from the supplement of paper PMC9112550, “Optimization of the antimicrobial peptide Bac7 by deep mutational scanning” (BMC Biology, 2022).

System: Escherichia coli TOP10
Assay: shrunken log2 fold change of peptide-encoding DNA abundance (4.5 h post-induction vs induction); higher = less antimicrobial activity (less host growth inhibition)
Settings: time post-induction: 4.5 h; library: site-saturation at positions 5, 18, 19, 20
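Also: peptides expressed intracellularly from a pBAD plasmid library in pooled LB shake-flask culture, induced with 0.3% L-arabinose, DNA abundance read by NGS, three biological replicates, DESeq2 with apeglm shrinkage.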

Sequence	shrunken log2 fold change
RRIRHRPPRLPRPRPRPYHPPRP	-0.00776
RRIRCRPPRLPRPRPRPMTFPRP	-0.0603
RRIRARPPRLPRPRPRPCFCPRP	0.25
RRIRLRPPRLPRPRPRPAWDPRP	0.0108
RRIRERPPRLPRPRPRPSTLPRP	-0.999
RRIRVRPPRLPRPRPRPMGNPRP	-0.0915
RRIRMRPPRLPRPRPRPWWLPRP	0.0657
RRIRQRPPRLPRPRPRPMVWPRP	-0.0183
RRIRRRPPRLPRPRPRPFMHPRP	0.0444
RRIRDRPPRLPRPRPRPCMVPRP	0.0359
RRIRSRPPRLPRPRPRPSELPRP	-0.215
RRIRRRPPRLPRPRPRPKGYPRP	0.172
RRIRRRPPRLPRPRPRPFIRPRP	-0.326
RRIRFRPPRLPRPRPRPANAPRP	-0.0885
RRIRMRPPRLPRPRPRPLLSPRP	0.17
RRIRMRPPRLPRPRPRPWMDPRP	-0.0276
RRIRLRPPRLPRPRPRPMYLPRP	0.0092
RRIRLRPPRLPRPRPRPMKDPRP	-0.111
RRIRCRPPRLPRPRPRPTDAPRP	0.215
RRIRKRPPRLPRPRPRPVMLPRP	0.109
RRIRERPPRLPRPRPRPHRFPRP	-0.169
RRIRQRPPRLPRPRPRPMQEPRP	0.0325

Sequence	shrunken log2 fold change
RRIRLRPPRLPRPRPRPITMPRP	-0.168
RRIRMRPPRLPRPRPRPDNYPRP	-0.0552
RRIRARPPRLPRPRPRPQPSPRP	0.555
RRIRIRPPRLPRPRPRPRMRPRP	0.791
RRIRQRPPRLPRPRPRPTGDPRP	0.349
RRIRSRPPRLPRPRPRPKVMPRP	0.0101
RRIRDRPPRLPRPRPRPHKQPRP	0.00319
RRIRLRPPRLPRPRPRPGGLPRP	0.097
RRIRSRPPRLPRPRPRPWTHPRP	-0.373
RRIRNRPPRLPRPRPRPHQAPRP	-0.0146
RRIRARPPRLPRPRPRPRNCPRP	0.849
RRIRPRPPRLPRPRPRPYQYPRP	-0.292
RRIRPRPPRLPRPRPRPCQWPRP	0.205
RRIRRRPPRLPRPRPRPKDNPRP	0.0969
RRIRRRPPRLPRPRPRPGMMPRP	0.257
RRIRFRPPRLPRPRPRPTGTPRP	0.0314
RRIRPRPPRLPRPRPRPWFEPRP	-0.261
RRIRYRPPRLPRPRPRPYMWPRP	-0.43
RRIRARPPRLPRPRPRPDQAPRP	0.026
RRIRKRPPRLPRPRPRPKEIPRP	0.00103
RRIRLRPPRLPRPRPRPCIVPRP	-0.641
RRIRKRPPRLPRPRPRPKSSPRP	0.202

Sequence	shrunken log2 fold change
RRIRKRPPRLPRPRPRPRKLPRP	0.0707
RRIRSRPPRLPRPRPRPPCDPRP	0.0563
RRIRERPPRLPRPRPRPMYSPRP	-0.552
RRIRQRPPRLPRPRPRPWWGPRP	0.0786
RRIRYRPPRLPRPRPRPAVVPRP	-0.149
RRIRHRPPRLPRPRPRPHDWPRP	0.0241
RRIRYRPPRLPRPRPRPTVNPRP	-0.45
RRIRNRPPRLPRPRPRPLYEPRP	-0.675
RRIRWRPPRLPRPRPRPIDYPRP	-0.235
RRIRYRPPRLPRPRPRPQYYPRP	-1.52
RRIRFRPPRLPRPRPRPTDHPRP	-0.323
RRIRFRPPRLPRPRPRPVYYPRP	-1.27
RRIRQRPPRLPRPRPRPAFLPRP	-0.0387
RRIRARPPRLPRPRPRPRVHPRP	0.555
RRIRPRPPRLPRPRPRPIPTPRP	0.00223
RRIRHRPPRLPRPRPRPTKEPRP	-0.0586
RRIRQRPPRLPRPRPRPTNIPRP	-0.122
RRIRFRPPRLPRPRPRPRFFPRP	0.0547
RRIRGRPPRLPRPRPRPMRKPRP	1.37
RRIRDRPPRLPRPRPRPLDDPRP	0.459
RRIRYRPPRLPRPRPRPRLHPRP	-0.415
RRIRVRPPRLPRPRPRPSICPRP	-0.208

Sequence	shrunken log2 fold change
RRIRGRPPRLPRPRPRPLNCPRP	-0.0116
RRIRGRPPRLPRPRPRPKSKPRP	0.611
RRIRVRPPRLPRPRPRPDPPPRP	1.27
RRIRNRPPRLPRPRPRPAYNPRP	-0.259
RRIRWRPPRLPRPRPRPETTPRP	0.234
RRIRMRPPRLPRPRPRPDAWPRP	2.59
RRIRARPPRLPRPRPRPRQVPRP	0.2
RRIRPRPPRLPRPRPRPFKQPRP	-0.258
RRIRPRPPRLPRPRPRPEHPPRP	0.231
RRIRYRPPRLPRPRPRPGCSPRP	-0.214
RRIRVRPPRLPRPRPRPSYNPRP	-0.485
RRIRIRPPRLPRPRPRPFKEPRP	-0.263
RRIRGRPPRLPRPRPRPILQPRP	0.621
RRIRARPPRLPRPRPRPEKNPRP	0.538
RRIRSRPPRLPRPRPRPRSAPRP	0.392
RRIRYRPPRLPRPRPRPCFRPRP	-0.266
RRIRCRPPRLPRPRPRPYPDPRP	-0.282
RRIRYRPPRLPRPRPRPDSAPRP	-0.378
RRIRWRPPRLPRPRPRPNQAPRP	-0.0796
RRIRHRPPRLPRPRPRPFPDPRP	0.0592
RRIRDRPPRLPRPRPRPQLHPRP	0.267
RRIRTRPPRLPRPRPRPIQCPRP	-0.521

Sequence	shrunken log2 fold change
RRIRDRPPRLPRPRPRPFELPRP	-0.0281
RRIRPRPPRLPRPRPRPQQTPRP	0.183
RRIRWRPPRLPRPRPRPTVHPRP	-0.189
RRIRWRPPRLPRPRPRPKWLPRP	0.19
RRIRERPPRLPRPRPRPLKEPRP	-0.0885
RRIRLRPPRLPRPRPRPGLEPRP	0.11
RRIRHRPPRLPRPRPRPPMDPRP	-0.309
RRIRWRPPRLPRPRPRPVYVPRP	-0.231
RRIRLRPPRLPRPRPRPGHSPRP	-0.0313
RRIRWRPPRLPRPRPRPVHTPRP	0.627
RRIRPRPPRLPRPRPRPNYMPRP	-0.737
RRIRCRPPRLPRPRPRPQQGPRP	0.188
RRIRIRPPRLPRPRPRPQPDPRP	-0.483
RRIRMRPPRLPRPRPRPGRCPRP	1.02
RRIRKRPPRLPRPRPRPPRQPRP	0.82
RRIRPRPPRLPRPRPRPFPLPRP	-0.332
RRIRNRPPRLPRPRPRPFVCPRP	-0.45
RRIRGRPPRLPRPRPRPPAEPRP	1.64
RRIRPRPPRLPRPRPRPYCPPRP	-0.365
RRIRMRPPRLPRPRPRPQGHPRP	0.0616
RRIRDRPPRLPRPRPRPGHCPRP	-0.0141
